assay: soluble on expression in E. coli; label from the status in PepcDB or PDB records

Row | Sequence | soluble on expression in E. coli
1 | MGSDKIHHHHHHVSRSVSIYVCQSCGAQTRQFFGRCNNCGEWNSIIEEKINQKSDKSIYTKINSPKEKSPYRSELISQTKNQLIERISSGYKELDRVLGGGLVPGSLVLIGGDPGIGKSTLILQSATEMAHHKSVLYVAAEESAQQVKLRWNRIEDAESNLHLLAETDLEMVIKELDHLKPEVAVIDSIQALHDQSLSSSPGSVAQVRECSAALQQIAKRQNISLLIIGHVTKDGMLAGPKVLEHLVDAVLTFEGDRFASHRLLRGVKNRFGATSELGVFEMQADGLSEVPNPSELFLSKTSAPGISTIVTCEGTRPLAIDIQALLNPTSYASPRRTTTGIEINRLHQILAVLEKNMNLSLSRYDCYLAVAGGLEVEEPGADLGIAAAIVSSLKDIELEEGVVFIGEIGLAGQLRLVRQMQQRINEVIRLGYKTLIIPDGIDTSEFETNQKLKILKASNINQALIYALDNN | not soluble
2 | MSSEEDKSVEQPQPPPPPPEEPGAPAPSPAAADKRPRGRPRKDGASPFQRARKKPRSRGKTAVEDEDSMDGLETTETETIVETAEIKEQSAEEDAEAEVDNSKQLIPTLQRSVSEESANSLVSVGVEAKISEQLCAFCYCGEKSSLGQGDLKQFRITPGFILPWRNQPSNKKDIDDNSNGTYEKMQNSAPRKQRGQRKERSPQQNIVSCVSVSTQTASDDQAGKLWDELSLVGLPDAIDIQALFDSTGTCWAHHRCVEWSLGVCQMEEPLLVNVDKAVVSGSTERCAFCKHLGATIKCCEEKCTQMYHYPCAAGAGTFQDFSHIFLLCPEHIDQAPERSKEDANCAVCDSPGDLLDQFFCTTCGQHYHGMCLDIAVTPLKRAGWQCPECKVCQNCKQSGEDSKMLVCDTCDKGYHTFCLQPVMKSVPTNGWKCKNCRICIECGTRSSSQWHHNCLICDNCYQQQDNLCPFCGKCYHPELQKDMLHCNMCKR | not soluble
3 | MATEGMILTNHDHQIRVGVLTVSDSCFRNLAEDRSGINLKDLVQDPSLLGGTISAYKIVPDEIEEIKETLIDWCDEKELNLILTTGGTGFAPRDVTPEATKEVIEREAPGMALAMLMGSLNVTPLGMLSRPVCGIRGKTLIINLPGSKKGSQECFQFILPALPHAIDLLRDAIVKVKEVHDRSHHHHHH | soluble
4 | MAHHHHHHMRSNCAPLGRVKIRILDLTVLSEDASDFVYDGLYVVSRLGPDAQRTNILCNGADSAGGRCWNEVFMFHFEGNPPEFRETAPTLSKSGLDVTVGQHISTYHDGPSLGNPSREYILPQQPHEVKRGLLAPPWMGGSCALPAITLELWRYSLSSDDCLARYQFCIPLEMSSGNIADRVVRLASASSYSVQFALRIRVALSGYDGGALGFENYMPAMSPANLPVLWRH | not soluble
5 | MSLAAHYLDFERPIADLESKIEELSRLSETAGPGAFDTEIQALRDRAQELRKEAYANLDAWQKTMVARHPQRPHLRDYVAGLIDEFVELRGDRKFADDQAIVGGLGRFRGQPVVVMGHEKGHDTTTRLKHNFGMARPEGYRKAVRLMDMAERFNLPVITFVDTAGAYPGLGAEERGQAEAIARSTERCLTLGVPMVATIVGEGGSGGAIALAGANRVLILEHSIYSVISPEGAASILWRDGARAKDAATQMRITAQDLIKLGIVDRIVEEPAGGAHSDTEAAIQAVGDAVEDELKAMAAMSPAELKKQRSDRFYAIGREGHHHHHH | soluble
6 | MAHHHHHHMAESAVLTPLSARHTVSPRDRSALATGISTLSSPTEETIEVDGATTTPSLPPETRVNVTEKLSDDGAERWPGDPEPPSQGCVASSSAANAHLPISSPALVRDEGHAHITAADYADRQRLLYHITYLSTQLQRAQLQVEDLTRTVCVLRGAVGDSAAATVAKAAVKEDATSAAVLAAKEERDVHAALQASLALFDPVIAQTQIYRLDDALAQVGLLREAELAQLRKANAALQDHRTFVSRLSEELAQLRSKTATLEQEKQRTETQLTAAVLEVEQLRYEERRLNNRVAGLEELAQDGTWMSNVRVVSAAAASTQASVSQQQPLVRLEREEQLARQALLLHVFWDPVLIAFDAGLTWLSDSAALQAKGSAAQEQPVAPGGAKAFVGERDLISLAQAGILVETPALPTDADLLLLQRQQEEVTQLRSRVQLLQERNRVGQLENERLQFLYEGEVRRNERMAKDHAAQLQQAYDEVVRDRQYIMNKLKQEVEDQIRLAYEDGRAYEQSRAKSRRSQKAFRAGNAVL | not soluble
7 | GPGSMTNPSNSNLQALREELCTPGLDQGHLFEGWPETVDECNERQIALLTDLYMFSNMYPGGVAQYIRNGHELLARESEEVDFAALEMPPLIFEAPSLHRRTAERTALENAGTAMLCKTVFVLVAGGLGERLGYSSIKVSLPVETATNTTYLAYYLRWAQRVGGKEVPFVIMTSDDTHDRTLQLLRELQLEVPNLHVLKQGQVFCFADSAAHLALDETGKLLRKPHGHGDVHSLIYNATVKRDVVPDSGDGTATAQPLVNDWLAAGYESIVFIQDTNAGATITIPISLALSAEHSLDMNFTCIPRVPKEPIGLLCRTKKNSGDPWLVANVEYNVFAEVSRALNKDGGDEVSDPTGFSPFPGSVNTLVFKLSSYVDRLRESHGIVPEFINPKYSDETRRSFKKPARIESLMQDIALLFSEDDYRVGGTVFERFSYQPVKNSLEEAAGLVAQGNGAYCAATGEAAFYELQRRRLKAIGLPLFYSSQPEVTVAKDAFGVRLFPIIVLDTMCASSGSLDDLARVFPTPEKVHIDQHSTLIVEGRVIIESLELYGALTIRGPTDSMALPHVVRNAVVRNAGWSVHAILSLCAGRDSRLSEVDRIRGFVLKKTAMAVMDCNTKGESEAGAPSGAADPAKL | soluble
8 | WKTTLKLTLDNVVKLEKLKPLVEDFYREFEFAELQINMEVFNGSWEAIAQGRADIVVGATSAVPVGGDFEVKDMGVLDWAFVMSPAHPCVRQQVLTEEFVSQFPAICLDDTSNVLPKRHTGHYAKQRRLLLPNWYSAIECLKNGVGVGYMPRHIAMPLIHEGVLVEKLLQDDKPLSRCCLVWRKDDDHKLIQWMVDYLGSPNQLHQDWLQC | soluble
9 | MPRQRRQGIVYDVREQGTARLIFDENRTKFDGVLETISGETMLVRGRVTSPTDLASTSATTDGSIVMDIDVVDGEEGSAFHVTGVKVLVDEHYAAIDSTAIKFEALDRLIGMKAAVEIQQHISPEIAYDSKEVFIGKMQIHLLTSHRPSPSSRRESVCAENNDIKILEVSDDFLA | not soluble
10 | MSLKEVAAKTGIGTLPEWNLGDLYMGIDAPEIAHDLAKMDAECVAFETDYKGKLAEHVARDDGGEWLAAAVRRYEAIDDLAGRLGSFAGLAHAGDSVDPAISKFYGDISERLTAASTHLLFFPLELNRIDDAVIERAMETPALGHYRPWIEDLRKDKPYQLEDRVEQLFHEKSQTGYSAWNRLFDQTIAGLRFQVGGKELAIEPTLNFLQDRDGAKRKAAAEALAKTFKANERTFALITNTLAKDKDISDRWRGFQDVADSRHLNNRVEREVVDALVASVRAAYPKLSHRYYQLKARWFKKKKLAHWDRNAPLPFAANATIAWPDAKNMVLTAYRGFSPEMADIAQRFFDQSWIDAPVRPGKAPGAFSHPTTPSAHPYVLMNYQGKPRDVMTLAHELGHGVHQVLAARQGALMAPTPLTLAETASVFGEMLTFKRLLSETRDAKQRQALLAGKVEDMINTVVRQIAFYSFERAVHTERKNGELTAERLGQIWLSVQTESLGEAIEIKPGYENFWMYIPHFIHSPFYVYAYAFGDCLVNSLYAVYEHAAEGFAERYLAMLAAGGTKHYSELLAPFGLDAKDPKFWDGGLSVIAGMIDELERMGEGHHHHHH | soluble
11 | MGSDKIHHHHHHMRIGVIGLGRIGTIHAENLKMIDDAILYAISDVREDRLREMKEKLGVEKAYKDPHELIEDPNVDAVLVCSSTNTHSELVIACAKAKKHVFCEKPLSLNLADVDRMIEETKKADVILFTGFNRRFDRNFKKLKEAVENGTIGKPHVLRITSRDPAPPPLDYIRVSGGIFLDMTIHDFDMARYIMGEEVEEVFADGSVLVDEEIGKAGDVDTAVVVLRFKSGALGVIDNSRRAVYGYDQRIEVFGSKGRIFADNVRETTVVLTDEQGDRGSRYLYFFLERYRDSYLEELKTFIKNVKSGEPPAVSGEDGKMALLLGYAAKKSLEEKRSVKLEEVIG | not soluble
12 | MPVSNEIWQLLSRLAEDIRPIGVNISAGEPNRLWTEAKWRALLERFPGERFVVLSGPDDLDAKRRLEEQCPNAVASPPTRNLYEASCIVAKLRLLVTPDTSMVHVASATGTPVAGLYREAPQDISRFGPYAIPYEIVISPTGEVSGIKPESVADAVRRLMARAIGREALEHHHHHH | not soluble
13 | MSEEVWNGNQGILSVYVSKARDLPNLNKLDKQNVMLRLRIAHMTRASNTLHRAGQNPVFHYLEKFDITPEIKPLMYVEVYCDRRKKSPLPIGRCEIDLLNAIRADPKEGYCTWYELKRSGDEFAGTIFIELTFTPKVPRLNRDDLNKEMDRLDSSMAMRPIPPLPTESEYDYVHGSTMRQITPQCVSTSHEDKDEGQPYRNGNVFSMSSKSDTAVLANSNDPIILPPTFSASMGTTSTLETNDTAISNTSNTKFHFANLRKLKEKINIFKNPDSSTNNCQNESNKVDIEALQKAIGVTSLSYDEDDDDDDENDAFYSSSHRVSHNYNQPPLPPIPTRDDMSNYSSSRNTPLVRRDRPSRLDSSSPNSHPHPSGLNSPKLPPLPTTSNSNFNSRKNSMSPTRKRPPPRLS | soluble
14 | MAHHHHHHMKGHIFYDVTEKGTPPAEYFVSSTGWGMSVVSPPNVGNCDEWETQVKAERIIVNCPDEMDVKAMCAWMERDGTTDGQAECWKMVEERMDKVGPIPRHIFDANKFVAHSAAIEDALDGINSRDGERHFTHRGVRLWYSGDPPQKVVSVVRARGEFGAGGFLNAAISVCLGRRIAHYFGGRDE | not soluble
15 | KGLAIAADYRNAYRVGGDYYDFIPSNYDRIRSQDDPKLVQCVPWSIVIGDVMGKGVPAGLIMTMTRGMLRAEVLNRHSPAKILEHLNRVMYADLDNSHRFVTLFYSEYDPKTRTLSYSNAAHHPPLLWRAQTQNIEPLDTQGMLIGLDLDSSYEDAKVVLEVGDIILYYTDGFTDAVNSHGDRFDEENLVRVFQNACQNCQTPEAIVQELFTQVEKFTYPKVRGGDDMTLVVVQVQSEAIESHLCQHHDC | not soluble
16 | MSLFKKNFDIKDDRNLTMLVDFYELTMGNGYLNKNVGNKTAYFDMFFRRVPDNGGYCIMAGVQQLTEYLSNLRFTKEDIDYLRSKHEFSEEFLSYLKDFKFECDVWAVPEGNPVFPNEPLVTVKGPAIQAQFVETMILLTINHQTLIATKANRICRAAGNRPVMEFGSRRAQGYDGAIYGARAAVIGGCSSTACTISEQMFGVNAVGTMAHSWVQLFDNEFEAFKAWADVYPENCVLLVDTYNVLKSGLPNAIKVFDEVLKPKGIRPSGIRIDSGDITYLTKKCRKILDEAGYSDCKIVISNSLDEHIITDVLLQGAEVDSFGVGERLITAKSEPVFGGVFKLCAVENDEGNIVPKIKISENQEKITNPGFKKIYRLFDKETDKALADLITLNDEVIDETKPLEIFDPIYTWKKKKLTHYYVKDLRVQLFKKGELVYENPEVLEIRNIAKKETEKLWAEVLRLENPHTYYVDLSKKLWDLKHNLLEKYSNAEGHHHHHH | soluble
17 | MSLASGNTLTYGLVVPDISNPFFASMARALQREAFNHGRVLLLGDAGDDRQHEHDLINHLLRRQVDGLLYTSVDRHPWFDLIRNSGTPCVMIDTIDSHAGISAIRVNERDAACQATRHLLQHGYRELGIFVGPLTMLNAQDRLNGWRDALIEAGITPREEWIFEAPYTRKGGYQASQKMLQGPCPRAIFTSNEQQALGCLSALAEHQLRVPDDLAIICFNGTQQSEFSVPPLSAVEQPIDAMARQAIAMLATGTAQPELHEFAFQLHIRRSEGHHHHHH | soluble
18 | KLLAITSCPNGIAHTYMAAENLQKAADRLGVSIKVETQGGIGVENKLTEEEIREADAIIIAADRSVNKDRFIGKKLLSVGVQDGIRKPEELIQKALNGDIPVY | soluble

— the DeepSol protein solubility set
